This note sets out measurements from article PMC11941939, “Tackling Prostate Cancer with Theranostic E5B9-Bombesin Target Modules (TMs): From Imaging to Treatment with UniCAR T-Cells” (International Journal of Molecular Sciences, 2025).

Data set [1] in a line: Dynamic PET imaging, tumor uptake in PC3 xenografts. In kind it is in vivo, mouse. The following applies: male, BALB/c Nude, mouse, PC3 xenograft tumor, iv, total radioactivity; PC3 tumor-bearing mice, PET, 60 min p.i., i.v., mean ± SEM, n = 4-6; read-out: SUVmean,60min tumor uptake. As for the experimental part: (§1) For PET experiments and as prostate cancer xenograft models, male PC3 and LNCaP tumor-bearing BALB/c Nude mice were used (body weight: 22−24 g, Charles River Laboratories, Saint-Constant, QC, Canada). To generate the tumor xenografts, about 5−6 × 10^6 PC3 cells in 100 μL of PBS or 20−25 × 10^6 LNCaP cells in 200 μL of PBS/Matrigel (50/50) were subcutaneously injected into the left shoulder of male BALB/c Nude mice. For the androgen-dependent LNCaP model, a 1.5 mg pellet containing dehydroepiandrosterone DHEA (60-day release; Innovative Research of America, Sarasota, FL, U.S.A.) was implanted subcutaneously into the upper right flank shortly before LNCaP cell injection. PC3 tumors and LNCaP tumors reached sizes of ∼300−500 mm^3 after 3−5 weeks and 6−8 weeks, respectively, and were used for the in vivo experiments. PET imaging of E5B9-^68Ga-NOTA-BBN2 monomeric and dimeric TMs was performed on an INVEON® PET/CT scanner (Siemens Preclinical Solutions, Knoxville, TN, USA). Prior to radiotracer injection, mice were anesthetized through inhalation of isoflurane in 40% oxygen/60% nitrogen (gas flow 1 L/min), and body temperature was kept constant at 37 °C. The mice were placed in a prone position in the center of the field of view. A transmission scan for attenuation correction was not acquired. Mice were injected with 4−8 MBq of E5B9-^68Ga-NOTA-BBN2 or E5B9-^68Ga-NOTA-(BBN2)2 in 150 μL 10% EtOH/saline solution through a tail vein catheter. For blocking studies, PC3- and LNCaP-tumor-bearing […] mice were pre-dosed i.v. with 300 μg of Ava-BBN2 (15 min prior to radiotracer injection) in 50 uL saline. Data acquisition was performed over 60 min in 3D list mode. The dynamic list mode data were sorted into sinograms with 54 time frames (10 × 2, 8 × 5, 6 × 10, 6 × 20, 8 × 60, 10 × 120, 6 × 300 s). The frames were reconstructed using maximum a posteriori (MAP) as the reconstruction mode. No correction for partial volume effects was applied. The image files were processed using the ROVER v2.0.51 software (ABX GmbH, Radeberg, Germany). […] ROIs covered all visible tumor mass of the subcutaneous tumors, and the thresholds were defined by 50% of the maximum radioactivity uptake level. Mean standardized uptake values [SUVmean = (activity/mL tissue)/(injected activity/body weight), […]] were calculated for each ROI, and time−activity curves (TACs) were generated. For each experimental group (different radiotracers and mouse tumor models as well as control and blocking experiments), n = 3–6 mice were measured. […] Blocking experiments were conducted in the same mice: first, a control scan was measured and then repeated 1–2 days after in the presence of a blocking concentration of 300 μg of Ava-BBN2. All semi-quantified PET data are presented as means ± SEM. […]

Data set [2] in a line: In vivo metabolic stability in venous blood plasma. On the set-up: species or system mouse. The following applies: BALB/c mice, i.v., 60 min p.i., radio-HPLC, mean ± SEM, n = 3, listed as dimeric TM. The protocol: For metabolic stability studies in vivo, normal male BALB/c mice (body weight: 23−26 g, Charles River Laboratories, Saint-Constant, QC, Canada) were anesthetized through inhalation of isoflurane in 40% oxygen/60% nitrogen (gas flow 1 L/min) prior to i.v. radiotracer injection via the tail vein. Mice were injected with 28-50 MBq of E5B9-^68Ga-NOTA-BBN2 TM, E5B9-^68Ga-NOTA-(BBN2)2 TM, or ^68Ga-NOTA-Ava-Glu-(BBN2)2 dimer in 150 μL of 10% EtOH/saline. Venous blood samples were collected at 5, 15, 30, and 60 min post-injection via the mouse tail vein and further processed. Blood cells were separated by centrifugation (13,000 rpm × 5 min). The supernatant was removed, and the contained proteins were precipitated by the addition of 2 volume parts of methanol (2 vol of MeOH/1 vol of the sample). Another centrifugation step (13,000 rpm × 5 min) was performed to obtain plasma. The clear plasma supernatant was injected into a Shimadzu HPLC system. The samples were analyzed using a Phenomenex Luna 10u C18(2) 100A, 250 × 4.6 mm column, at a constant flow rate of 1 mL/min, and the following gradient with water/0.2% TFA as solvent A and acetonitrile as solvent B: 0−3 min 10% B, 10 min 30% B, 17 min 50% B, 23 min 70% B, and 27−30 min 90% B. For each radiotracer (monomers and dimers with and without E5B9) blood samples from n = 3 mice were analyzed. […]

The subject of a further data set is LNCaP tumors. Briefly: Dynamic PET imaging, tumor uptake in LNCaP xenografts. The class given is in vivo, mouse. The following applies: LNCaP tumors, pre-dosing i.v. with 300 µg Ava-BBN2 15 min before radiotracer, n = 3, p < 0.01. As for the experimental part:
as §1

Test in data set [3]: as above
The class given is in vivo, mouse. The following applies: male, BALB/c Nude, mouse, LNCaP xenograft tumor, iv, total radioactivity; LNCaP tumor-bearing mice, PET, 60 min p.i., i.v., mean ± SEM, n = 3-4; read-out: SUVmean,60min tumor uptake. The protocol: as §1

As for `CC[C@H](C)[C@@H](CCC(=O)N[C@H](C(N)=O)C(C)(C)C)NC(=O)[C@H](Cc1c[nH]cn1)NC(=O)CN(C)C(=O)[C@@H](NC(=O)[C@H](C)NC(=O)[C@H](Cc1c[nH]c2ccccc12)NC(=O)[C@H](CCC(N)=O)NC(=O)CCCCNC(=O)CC[C@H](NC(=O)[C@H](CCCCn1nnc2c1-c1ccccc1CN(C(=O)CCNC(=O)CCOCCOCCOCCOCCNC(=O)CCN1C(=O)CC(SC[C@H](NC(=O)[C@H](Cc3ccc(O)cc3)NC(=O)[C@H](CCC(=O)O)NC(=O)[C@H](CC(=O)O)NC(=O)[C@@H](NC(=O)[C@@H](NC(=O)[C@H](CCC(=O)O)NC(=O)[C@@H]3CCCN3C(=O)[C@H](CC(C)C)NC(=O)[C@@H]3CCCN3C(=O)[C@H](CCCCN)NC(=O)[C@@H](N)CO)C(C)C)[C@@H](C)O)C(=O)O)C1=O)c1ccccc1-2)NC(=O)CCCCNC(=S)Nc1ccc(C[C@H]2CN(CC(=O)O)CCN(CC(=O)O)CCN2CC(=O)O)cc1)C(=O)NCCCCC(=O)N[C@@H](CCC(N)=O)C(=O)N[C@@H](Cc1c[nH]c2ccccc12)C(=O)N[C@@H](C)C(=O)N[C@H](C(=O)N(C)CC(=O)N[C@@H](Cc1c[nH]cn1)C(=O)N[C@H](CCC(=O)N[C@H](C(N)=O)C(C)(C)C)[C@@H](C)CC)C(C)C)C(C)C` (stereo partly shown) [dimeric ^68Ga-(BBN2)2 TM, metal not drawn], the SUV at 1 h came to 0.51 ± 0.1 SUV in data set [1] and 0.38 ± 0.03 SUV in data set [3]. Further, in data set [2], the “intact 68Ga-peptide remaining” value worked out at 93 ± 1%. For the same molecule, the “in vivo blocking of tumor uptake” value in the data set with LNCaP tumors came to 43 ± 3%.
